Source: article PMC10284691 (2023)
Like-named read-outs stand apart in the source and are kept apart here.

T1: BPH14–LRR (purified from insect cells) (rice (Oryza sativa), line RI35 carrying …, biotin (NHS-biotin) in the BLI assays; RED-NHS 2nd Generation dye in the MST assays)
T1 chain: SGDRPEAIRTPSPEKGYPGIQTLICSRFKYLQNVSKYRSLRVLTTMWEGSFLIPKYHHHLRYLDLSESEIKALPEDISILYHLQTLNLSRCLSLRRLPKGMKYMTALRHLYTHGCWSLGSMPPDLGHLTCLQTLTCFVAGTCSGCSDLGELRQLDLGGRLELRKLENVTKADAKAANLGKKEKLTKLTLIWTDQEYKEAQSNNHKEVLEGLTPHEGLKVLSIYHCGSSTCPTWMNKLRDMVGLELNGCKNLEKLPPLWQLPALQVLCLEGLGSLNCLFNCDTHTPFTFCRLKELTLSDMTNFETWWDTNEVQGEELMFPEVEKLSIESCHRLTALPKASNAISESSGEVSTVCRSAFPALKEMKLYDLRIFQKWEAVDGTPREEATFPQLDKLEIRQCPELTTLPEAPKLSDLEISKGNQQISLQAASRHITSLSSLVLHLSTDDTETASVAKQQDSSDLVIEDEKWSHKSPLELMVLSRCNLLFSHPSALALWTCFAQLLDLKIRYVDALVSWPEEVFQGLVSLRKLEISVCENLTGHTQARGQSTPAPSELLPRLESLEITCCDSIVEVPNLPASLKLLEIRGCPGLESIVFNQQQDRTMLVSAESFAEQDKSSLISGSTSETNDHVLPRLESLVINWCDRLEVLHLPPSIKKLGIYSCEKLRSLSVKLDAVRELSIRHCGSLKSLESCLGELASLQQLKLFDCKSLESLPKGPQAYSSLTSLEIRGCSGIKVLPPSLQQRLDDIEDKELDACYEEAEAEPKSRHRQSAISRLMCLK

B1: BISP (purified from insect cells) (natural protein)
chain: SAMRYASGFQNNERQSSEQESYSRSAQSSEKSSSGYQMGEMASAGVGMSSGYGGSGYSSGGGYQQGVGYSGCDSDYSSGGIGGIVNTATGLASSVTGMAGGLGGGGGLADVGGVVNTVSGLADVGGLTNTVSGLADVGGVTNTVGGLVNGIAGGGAGGGLLGGVLGGGDGGCGGNCGGNCGGNCGGRGGGGGGLLGGILGGGSGGGRGARVSARVC
B2: BISP(26–124) (purified from insect cells) (domain or fragment)
chain: SAMRYASGFQNNERQSSEQESYSRSAQSSEKSSSGYQMGEMASAGVGMSSGYGGSGYSSGGGYQQGVGYSGCDSDYSSGGIGGIVNTATGLASSVTGMA

Key:
[1] = biological target: T1, BPH14–LRR (purified from insect cells); assay: BLI
[2] = biological target: T1, BPH14–LRR (purified from insect cells); assay: MST; competition with BISP(26–124) prebound to LRR
[3] = biological target: T1, BPH14–LRR (purified from insect cells); assay: MST
[4] = biological target: T1, BPH14–LRR (purified from insect cells); assay: BLI

Row | Binder | koff [1] [s⁻¹] | Ki [2] [nM] | Kd [3] [nM] | koff [4] [s⁻¹]
1 | B1 | 0.000341 | 98 | 9.72 | –
2 | B2 | – | – | 56.1 | 0.000719
